According to IntAct's records for PubMed 19805355:

B1: ATP-sensitive inward rectifier potassium channel 11 (Homo sapiens), Q14654 (parent)
chain: MLSRKGIIPEEYVLTRLAEDPAKPRYRARQRRARFVSKKGNCNVAHKNIREQGRFLQDVFTTLVDLKWPHTLLIFTMSFLCSWLLFAMAWWLIAFAHGDLAPSEGTAEPCVTSIHSFSSAFLFSIEVQVTIGFGGRMVTEECPLAILILIVQNIVGLMINAIMLGCIFMKTAQAHRRAETLIFSKHAVIALRHGRLCFMLRVGDLRKSMIISATIHMQVVRKTTSPEGEVVPLHQVDIPMENGVGGNSIFLVAPLIIYHVIDANSPLYDLAPSDLHHHQDLEIIVILEGVVETTGITTQARTSYLADEILWGQRFVPIVAEEDGRYSVDYSKFGNTVKVPTPLCTARQLDEDHSLLEALTLASARGPLRKRSVPMAKAKPKFSISPDSLS

Variants of: B1
Settings: with ank2_human ANK2, Q01484
Sequence of ank2_human ANK2, Q01484 (Q01484 whole entry): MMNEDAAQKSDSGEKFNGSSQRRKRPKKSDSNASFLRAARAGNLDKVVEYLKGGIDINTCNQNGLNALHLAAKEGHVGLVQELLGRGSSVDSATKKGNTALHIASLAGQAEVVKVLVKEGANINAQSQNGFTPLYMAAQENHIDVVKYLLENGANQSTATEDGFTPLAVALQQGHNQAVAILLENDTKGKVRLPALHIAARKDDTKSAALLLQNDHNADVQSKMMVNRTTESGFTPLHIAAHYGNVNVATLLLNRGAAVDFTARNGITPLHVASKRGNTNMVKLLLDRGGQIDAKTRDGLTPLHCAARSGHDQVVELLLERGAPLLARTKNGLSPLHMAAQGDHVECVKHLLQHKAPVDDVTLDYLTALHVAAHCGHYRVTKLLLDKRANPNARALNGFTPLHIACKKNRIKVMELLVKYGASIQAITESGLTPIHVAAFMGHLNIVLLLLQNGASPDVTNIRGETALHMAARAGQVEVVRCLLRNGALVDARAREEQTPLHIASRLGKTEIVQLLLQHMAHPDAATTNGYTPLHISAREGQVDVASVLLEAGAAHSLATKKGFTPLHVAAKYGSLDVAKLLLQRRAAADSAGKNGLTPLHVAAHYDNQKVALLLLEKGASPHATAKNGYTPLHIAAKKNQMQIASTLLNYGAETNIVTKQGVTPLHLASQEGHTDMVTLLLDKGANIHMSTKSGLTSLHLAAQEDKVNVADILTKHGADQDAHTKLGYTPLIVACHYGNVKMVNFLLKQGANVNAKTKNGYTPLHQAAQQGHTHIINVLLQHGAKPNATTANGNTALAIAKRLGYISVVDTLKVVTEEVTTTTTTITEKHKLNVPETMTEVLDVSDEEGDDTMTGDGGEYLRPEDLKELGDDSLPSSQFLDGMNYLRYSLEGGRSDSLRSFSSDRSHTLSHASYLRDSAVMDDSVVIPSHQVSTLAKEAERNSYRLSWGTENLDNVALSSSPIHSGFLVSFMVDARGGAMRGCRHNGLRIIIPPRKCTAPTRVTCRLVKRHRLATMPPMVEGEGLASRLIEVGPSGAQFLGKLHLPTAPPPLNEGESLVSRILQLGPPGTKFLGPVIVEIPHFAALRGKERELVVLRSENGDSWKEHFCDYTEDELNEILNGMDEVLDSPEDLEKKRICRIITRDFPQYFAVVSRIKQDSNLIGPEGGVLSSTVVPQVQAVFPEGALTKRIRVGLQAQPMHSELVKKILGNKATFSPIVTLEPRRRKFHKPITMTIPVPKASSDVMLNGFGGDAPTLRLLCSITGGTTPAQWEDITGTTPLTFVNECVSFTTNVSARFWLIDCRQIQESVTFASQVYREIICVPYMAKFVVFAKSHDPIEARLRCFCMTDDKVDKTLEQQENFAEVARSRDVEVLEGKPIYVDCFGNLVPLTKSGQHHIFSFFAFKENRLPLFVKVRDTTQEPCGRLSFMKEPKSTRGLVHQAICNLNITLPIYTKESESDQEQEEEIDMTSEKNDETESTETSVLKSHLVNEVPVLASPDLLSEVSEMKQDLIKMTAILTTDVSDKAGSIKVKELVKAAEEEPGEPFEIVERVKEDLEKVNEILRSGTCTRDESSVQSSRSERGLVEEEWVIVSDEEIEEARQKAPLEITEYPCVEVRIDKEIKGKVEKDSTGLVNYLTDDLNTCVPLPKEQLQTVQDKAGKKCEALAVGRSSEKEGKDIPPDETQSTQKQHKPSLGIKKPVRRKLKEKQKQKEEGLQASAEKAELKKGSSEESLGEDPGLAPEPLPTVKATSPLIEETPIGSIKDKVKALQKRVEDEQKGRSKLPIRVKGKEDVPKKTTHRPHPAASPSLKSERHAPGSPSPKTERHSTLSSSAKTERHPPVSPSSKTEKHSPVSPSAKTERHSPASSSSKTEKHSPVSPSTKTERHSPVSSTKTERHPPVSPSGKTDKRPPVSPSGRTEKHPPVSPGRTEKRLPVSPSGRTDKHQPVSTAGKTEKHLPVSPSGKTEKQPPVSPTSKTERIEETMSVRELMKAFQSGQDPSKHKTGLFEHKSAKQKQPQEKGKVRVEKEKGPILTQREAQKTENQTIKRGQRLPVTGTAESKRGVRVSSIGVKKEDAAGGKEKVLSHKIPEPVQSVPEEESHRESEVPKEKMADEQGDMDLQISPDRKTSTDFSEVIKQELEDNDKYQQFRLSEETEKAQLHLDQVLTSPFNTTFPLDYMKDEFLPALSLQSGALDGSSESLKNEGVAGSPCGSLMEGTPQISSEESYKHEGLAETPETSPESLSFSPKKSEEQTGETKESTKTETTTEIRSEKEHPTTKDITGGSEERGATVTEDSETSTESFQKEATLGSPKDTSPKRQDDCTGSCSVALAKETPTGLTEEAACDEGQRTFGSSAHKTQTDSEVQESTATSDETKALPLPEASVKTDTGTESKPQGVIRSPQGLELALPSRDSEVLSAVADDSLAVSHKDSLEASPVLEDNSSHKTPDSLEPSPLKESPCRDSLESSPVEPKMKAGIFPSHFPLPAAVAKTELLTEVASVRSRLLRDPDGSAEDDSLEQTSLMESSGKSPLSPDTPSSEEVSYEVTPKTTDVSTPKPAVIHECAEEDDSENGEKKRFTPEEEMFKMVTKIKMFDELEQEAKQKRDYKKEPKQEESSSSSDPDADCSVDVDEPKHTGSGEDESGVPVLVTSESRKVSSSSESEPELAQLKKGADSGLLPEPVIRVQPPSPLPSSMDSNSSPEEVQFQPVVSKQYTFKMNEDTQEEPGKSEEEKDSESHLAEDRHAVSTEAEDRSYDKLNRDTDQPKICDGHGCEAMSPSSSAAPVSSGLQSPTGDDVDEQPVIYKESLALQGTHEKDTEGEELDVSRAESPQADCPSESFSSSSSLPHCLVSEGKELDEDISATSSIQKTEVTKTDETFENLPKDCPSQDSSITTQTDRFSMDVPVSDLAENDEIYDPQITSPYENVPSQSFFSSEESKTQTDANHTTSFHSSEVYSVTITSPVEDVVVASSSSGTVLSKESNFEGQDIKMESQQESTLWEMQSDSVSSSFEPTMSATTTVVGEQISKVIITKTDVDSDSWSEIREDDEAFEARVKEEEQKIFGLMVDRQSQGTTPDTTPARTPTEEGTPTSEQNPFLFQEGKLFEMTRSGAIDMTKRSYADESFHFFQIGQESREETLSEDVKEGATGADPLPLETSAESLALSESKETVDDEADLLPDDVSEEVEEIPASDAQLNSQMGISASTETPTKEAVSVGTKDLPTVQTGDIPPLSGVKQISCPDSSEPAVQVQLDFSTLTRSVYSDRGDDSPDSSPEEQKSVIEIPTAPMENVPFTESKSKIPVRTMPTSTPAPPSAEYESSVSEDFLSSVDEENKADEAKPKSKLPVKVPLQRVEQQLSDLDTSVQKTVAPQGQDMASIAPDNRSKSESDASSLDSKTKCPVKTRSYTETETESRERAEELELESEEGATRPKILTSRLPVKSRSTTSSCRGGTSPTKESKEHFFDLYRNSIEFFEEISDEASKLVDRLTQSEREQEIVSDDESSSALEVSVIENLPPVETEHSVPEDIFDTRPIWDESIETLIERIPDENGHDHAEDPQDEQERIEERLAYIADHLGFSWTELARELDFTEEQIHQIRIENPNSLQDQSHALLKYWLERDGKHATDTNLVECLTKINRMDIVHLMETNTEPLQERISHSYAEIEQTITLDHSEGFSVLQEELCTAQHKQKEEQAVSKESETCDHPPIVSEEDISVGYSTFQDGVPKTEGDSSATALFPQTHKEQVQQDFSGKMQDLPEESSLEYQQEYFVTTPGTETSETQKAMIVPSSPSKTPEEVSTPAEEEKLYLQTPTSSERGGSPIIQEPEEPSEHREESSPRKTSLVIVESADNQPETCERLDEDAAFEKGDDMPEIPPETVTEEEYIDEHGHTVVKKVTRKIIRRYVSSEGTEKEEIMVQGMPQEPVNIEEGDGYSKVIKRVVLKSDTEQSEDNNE

Row | effect of a mutation on the interaction | Variant
1 | disrupting interaction | E321K
2 | disrupting interaction | E322K
3 | disrupting interaction | D323K

Variants of: B1
Settings: with ank2_human ANK2, Q01484
Remark: another data set of the same source

Row | effect of a mutation on the interaction | Variant
4 | decreasing interaction | E322K
